The numbers were not newly measured in article PMC10925690, which cites them from elsewhere.

pKd: −log10 of the molar value.

The target of data set [1] is FcγRIIIa F158 (Homo sapiens) (UniProt P08637). Put plainly: SPR. The note with it: cited from earlier work.
The target in data set [2] is FcγRIIIa V158 (Homo sapiens) (UniProt P08637). Put plainly: SPR. The note with it: cited from earlier work.
Chain of FcγRIIIa V158 (Homo sapiens) (P08637 17-254): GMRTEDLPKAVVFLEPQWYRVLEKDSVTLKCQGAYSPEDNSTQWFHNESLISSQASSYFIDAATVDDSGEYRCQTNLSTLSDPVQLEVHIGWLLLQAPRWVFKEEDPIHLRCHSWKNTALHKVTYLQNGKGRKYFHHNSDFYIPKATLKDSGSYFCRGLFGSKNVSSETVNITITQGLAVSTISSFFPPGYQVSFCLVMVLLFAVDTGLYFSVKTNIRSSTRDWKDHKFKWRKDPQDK

Chain of FcγRIIIa F158 (Homo sapiens) (P08637 17-254): as above

One may read the pKd as −log10 of the Kd, conventionally taken in molar units. With IgG1 Fc Fc (from UniProt P01857), the results for the pKd in data set [1] and in data set [2] were 5.60 and 6.40, respectively.
